Literature values, collected in PMC10317158.
Each block holds one substance with its values, some of them ahead of it.

Legend:
[1] = molecular target: Mpp6 NIM (Saccharomyces cerevisiae) (UniProt P53725)
[2] = molecular target: Sen1 NIM2 (Saccharomyces cerevisiae) (UniProt Q00416)
[3] = molecular target: RNA polymerase II CTD pSer2/5 peptide CTD (Saccharomyces cerevisiae) (UniProt P04050)
[4] = molecular target: RNA polymerase II CTD pSer2/7 peptide CTD (Saccharomyces cerevisiae) (UniProt P04050)
[5] = molecular target: RNA polymerase II CTD pThr4 peptide CTD (Saccharomyces cerevisiae) (UniProt P04050)
[6] = molecular target: RNA polymerase II CTD pSer2 peptide CTD (Saccharomyces cerevisiae) (UniProt P04050)

Kd [1]: 13.6 µM | Kd [2]: 1.75 µM | Kd [3]: 16 µM
Substance: Nrd1 CID (from UniProt P53617)

Kd [4]: 1.6 µM | Kd [5]: 6 µM
Substance: Rtt103 CID (from UniProt Q05543)

Kd [6]: 115 µM
Substance: Pcf11 CID (from UniProt P39081)
